From patent US20200291118A1 come the findings set out here.

For the experiment, the target named is hPD-1-hIgGFc antigen (human), Q15116. Briefly: ELISA on coated hPD-1-hIgGFc, ligand PD-L2-his tag 0.3 µg/ml detected; no antibody (row 'blank' under HX009-5). For orientation: In an ELISA, binding on a coated surface is turned into a signal by an enzyme label.

Like-named read-outs stand apart in the source and are kept apart here.

Sequence of hPD-1-hIgGFc antigen (human), Q15116 (Q15116 25-167 limits assumed): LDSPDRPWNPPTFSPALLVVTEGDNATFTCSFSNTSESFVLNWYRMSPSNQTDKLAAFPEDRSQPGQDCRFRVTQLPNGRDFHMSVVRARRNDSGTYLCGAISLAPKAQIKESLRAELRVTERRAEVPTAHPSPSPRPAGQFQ

B1: PD-L2-his tag, Q9BQ51 20-220 (ligand, UniProt Q9BQ51 20-220, looked up, not shown: small tags and cut ends)
chain: LFTVTVPKELYIIEHGSNVTLECNFDTGSHVNLGAITASLQKVENDTSPHRERATLLEEQLPLGKASFHIPQVQVRDEGQYQCIIIYGVAWDYKYLTLKVKASYRKINTHILKVPETDEVELTCQATGYPLAEVSWPNVSVPANTSHSRTPEGLYQVTSVLRLKPPPGRNFSCVFWNTHVRELTLASIDLQSQMEPRTHPT
As to B1, the absorbance at 450 nm is 1.1. The same molecule displayed an absorbance at 450 nm (remark: other sources report otherwise) of 1.09.
